# Values quoted from earlier work as cited in article PMC7139808.
# Legend:
# [1] = biological target: hemoglobin (Homo sapiens) (UniProt P69905)
# [2] = biological target: hemoglobin (Mus musculus) (UniProt P01942)
# Chain of UniProt P01942 (P01942 2-142, chain 1 of 2): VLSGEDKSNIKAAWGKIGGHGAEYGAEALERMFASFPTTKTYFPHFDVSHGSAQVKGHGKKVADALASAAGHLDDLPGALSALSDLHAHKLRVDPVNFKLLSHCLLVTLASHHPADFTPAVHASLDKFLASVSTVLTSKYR
# Chain of UniProt P01942 (P02088 2-147, chain 2 of 2, further chain): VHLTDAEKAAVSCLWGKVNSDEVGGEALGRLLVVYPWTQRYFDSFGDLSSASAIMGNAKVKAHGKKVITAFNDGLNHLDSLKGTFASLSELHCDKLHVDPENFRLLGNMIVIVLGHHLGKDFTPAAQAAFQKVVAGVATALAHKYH
# Chain of UniProt P69905 (P69905 2-142, chain 1 of 2): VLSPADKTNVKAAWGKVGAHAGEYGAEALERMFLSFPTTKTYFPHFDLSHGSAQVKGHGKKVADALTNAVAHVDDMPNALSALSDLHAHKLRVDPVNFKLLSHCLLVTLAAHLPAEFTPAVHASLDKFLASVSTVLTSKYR
# Chain of UniProt P69905 (P68871 2-147, chain 2 of 2, further chain): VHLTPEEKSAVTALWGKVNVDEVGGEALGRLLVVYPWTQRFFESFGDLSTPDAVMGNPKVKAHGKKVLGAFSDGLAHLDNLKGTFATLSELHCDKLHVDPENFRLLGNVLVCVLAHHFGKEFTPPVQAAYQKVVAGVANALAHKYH
substance,measurement,setting,value
IsdB (from UniProt A7X146),Kd,[1],55 nM
same,Kd,[2],980 nM
